{"source": "paper PMC5595889", "target": "mouse importin α1 lacking the N-terminal importin-β-binding domain (ΔIBB-importin α1) (mouse)", "experiment": "ITC", "data": [{"substance": "influenza NLS1 peptide (1-…-13)", "values": [{"measurement": "Kd", "result": 4.9, "unit": "µM"}]}]}
